Target: T1, yeast mitochondrial RNA polymerase ΔN100 (y-mtRNAP ΔN100) (S. cerevisiae, UniProt P13433 101-1351)
T1 sequence (looked up): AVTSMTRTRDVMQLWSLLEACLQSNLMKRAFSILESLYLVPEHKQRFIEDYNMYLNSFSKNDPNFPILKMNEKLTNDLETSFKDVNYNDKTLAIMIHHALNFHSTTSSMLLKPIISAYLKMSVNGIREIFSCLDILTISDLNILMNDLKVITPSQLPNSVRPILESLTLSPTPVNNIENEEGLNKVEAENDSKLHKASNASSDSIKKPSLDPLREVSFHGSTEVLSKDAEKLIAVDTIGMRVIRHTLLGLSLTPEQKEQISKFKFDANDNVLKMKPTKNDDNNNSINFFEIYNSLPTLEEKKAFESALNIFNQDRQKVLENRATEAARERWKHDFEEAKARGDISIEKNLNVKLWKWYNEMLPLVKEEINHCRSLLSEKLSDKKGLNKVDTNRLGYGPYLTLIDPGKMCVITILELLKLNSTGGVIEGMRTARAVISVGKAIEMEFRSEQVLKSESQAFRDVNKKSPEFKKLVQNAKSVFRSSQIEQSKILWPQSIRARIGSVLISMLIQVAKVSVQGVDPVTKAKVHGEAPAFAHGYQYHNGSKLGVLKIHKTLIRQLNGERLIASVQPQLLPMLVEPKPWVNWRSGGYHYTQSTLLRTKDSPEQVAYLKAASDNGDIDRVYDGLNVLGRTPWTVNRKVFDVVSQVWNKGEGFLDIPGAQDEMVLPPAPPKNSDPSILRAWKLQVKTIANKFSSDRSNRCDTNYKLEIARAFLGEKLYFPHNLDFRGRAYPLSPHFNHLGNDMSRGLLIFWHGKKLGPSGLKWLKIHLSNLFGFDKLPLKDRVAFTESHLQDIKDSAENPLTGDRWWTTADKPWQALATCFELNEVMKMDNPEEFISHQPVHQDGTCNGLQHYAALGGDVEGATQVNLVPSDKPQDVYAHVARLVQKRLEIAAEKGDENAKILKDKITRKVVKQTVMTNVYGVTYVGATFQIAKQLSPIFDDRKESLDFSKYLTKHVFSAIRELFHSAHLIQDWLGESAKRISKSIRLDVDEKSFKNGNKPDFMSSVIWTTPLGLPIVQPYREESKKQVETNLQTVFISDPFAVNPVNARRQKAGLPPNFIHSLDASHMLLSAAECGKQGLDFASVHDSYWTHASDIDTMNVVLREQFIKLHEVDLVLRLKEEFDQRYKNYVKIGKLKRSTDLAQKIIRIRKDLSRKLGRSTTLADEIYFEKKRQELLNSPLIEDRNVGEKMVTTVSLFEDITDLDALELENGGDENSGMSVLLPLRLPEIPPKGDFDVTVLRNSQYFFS
Test: cryo-EM structure

B1: MTF1 (yeast mitochondrial transcription factor), wild type (natural protein, S. cerevisiae)
chain: SVPIPGIKDISKLKFFYGFKYLWNPTVYNKIFDKLDLTKTYKHPEELKVLDLYPGVGIQSAIFYNKYCPRQYSLLEKRSSLYKFLNAKFEGSPLQILKRDPYDWSTYSNLIDEERIFVPEVQSSDHINDKFLTVANVTGEGSEGLIMQWLSCIGNKNWLYRFGKVKMLLWMPSTTARKLLARPGMHSRSKCSVVREAFTDTKLIAISDANELKGFDSQCIEEWDPILFSAAEIWPTKGKPIALVEMDPIDFDFDVDNWDYVTRHLMILKRTPLNTVMDSLGHGGQQYFNSRITDKDLLKKCPIDLTNDEFIYLTKLFMEWPFKPDILMDFVDMYQTEHSG
Q: Does B1 bind?
A: binds

Reference: article PMC7855493 (Molecular cell, 2020)
